Reference: doi:10.1101/2023.08.16.553474

What was measured:
Experiment in all cases: fluorescence anisotropy
[1] = molecular target: MYCN 1-154 (UniProt P04198 1-154)
[2] = molecular target: MYCN FL (UniProt P04198 1-464)
[3] = molecular target: MYCN 1-154 dMBII (UniProt P04198 1-154, del111-134)

| Binder | binding result [1] | Kd [2] [nM] | binding result [3] |
| --- | --- | --- | --- |
| 62 RNA (ssRNA) RNA: UGGGCCUGGAAUAGUGGGGGCCCAGGGGAAGCUGCGAUGUGCUUCUGAGUGUUUGGAACGAG | binds |  |  |
| UGhigh RNA (ssRNA) RNA: UGCUGGGAUGGUCAUGGUGGGUGACCCUGGGAUGGCCGCGGUGGGUGACCCUGGAAUGGU |  | 175 | binds |
| UGlow RNA (ssRNA) RNA: ACAGUCCAGUCGCAGCAGACUCCCUCACAGCACCCACCUCUCCCACAAUCGGAUCCCAGG |  | 511 |  |
